Experimental data taken from US20110151450.
Where a chain is given by its changes, count along the chain named.

Assays:
Assay in all cases: cleavage_in_vitro
[1] = tested on: T1, PvuI-HF P154A (Proteus vulgaris); settings: NEB4, relative activity 100%
T1 sequence: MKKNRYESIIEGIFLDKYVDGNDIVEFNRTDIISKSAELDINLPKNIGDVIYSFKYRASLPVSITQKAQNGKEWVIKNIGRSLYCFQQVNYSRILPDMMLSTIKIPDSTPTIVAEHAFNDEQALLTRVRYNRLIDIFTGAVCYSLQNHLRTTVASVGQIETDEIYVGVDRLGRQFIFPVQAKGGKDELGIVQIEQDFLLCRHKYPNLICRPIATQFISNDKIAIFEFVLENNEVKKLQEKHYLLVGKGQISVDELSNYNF

[2] = tested on: T2, PmeI-WT (Pseudomonas mendocina); settings: NEB4, relative activity 25%
T2 sequence: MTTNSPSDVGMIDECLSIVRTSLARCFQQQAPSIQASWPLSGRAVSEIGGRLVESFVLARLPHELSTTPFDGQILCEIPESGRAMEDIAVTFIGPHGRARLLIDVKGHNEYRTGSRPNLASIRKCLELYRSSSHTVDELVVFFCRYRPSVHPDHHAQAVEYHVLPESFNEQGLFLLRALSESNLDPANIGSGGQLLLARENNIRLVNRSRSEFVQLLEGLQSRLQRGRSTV

[3] = molecular target: T3, SmaI-WT (Serratia marcescens) (UniProt P14229); settings: NEB4, relative activity 100%
T3 sequence: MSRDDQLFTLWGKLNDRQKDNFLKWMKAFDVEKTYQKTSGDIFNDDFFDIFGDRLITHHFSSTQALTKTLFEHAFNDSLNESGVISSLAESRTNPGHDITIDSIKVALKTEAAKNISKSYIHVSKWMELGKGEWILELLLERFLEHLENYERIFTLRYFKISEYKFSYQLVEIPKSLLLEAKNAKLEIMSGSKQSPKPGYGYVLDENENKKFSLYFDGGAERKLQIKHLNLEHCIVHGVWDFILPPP

[4] = molecular target: T4, SmaI-HF F60L/S61R (Serratia marcescens) (UniProt P14229); settings: NEB4, relative activity 100%
T4 sequence: T3 sequence with F60L, S61R

[5] = tested on: T5, SpeI-WT (Sphaerotilus natans); settings: NEB4, relative activity 50%
T5 sequence: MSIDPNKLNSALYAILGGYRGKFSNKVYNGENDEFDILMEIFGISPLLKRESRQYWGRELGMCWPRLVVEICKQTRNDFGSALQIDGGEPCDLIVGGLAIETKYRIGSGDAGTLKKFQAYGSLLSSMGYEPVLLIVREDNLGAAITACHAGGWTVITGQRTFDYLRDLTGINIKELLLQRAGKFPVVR

[6] = tested on: T6, NsiI-WT (Neisseria sicca); settings: NEB4, relative activity 12.5%
T6 sequence: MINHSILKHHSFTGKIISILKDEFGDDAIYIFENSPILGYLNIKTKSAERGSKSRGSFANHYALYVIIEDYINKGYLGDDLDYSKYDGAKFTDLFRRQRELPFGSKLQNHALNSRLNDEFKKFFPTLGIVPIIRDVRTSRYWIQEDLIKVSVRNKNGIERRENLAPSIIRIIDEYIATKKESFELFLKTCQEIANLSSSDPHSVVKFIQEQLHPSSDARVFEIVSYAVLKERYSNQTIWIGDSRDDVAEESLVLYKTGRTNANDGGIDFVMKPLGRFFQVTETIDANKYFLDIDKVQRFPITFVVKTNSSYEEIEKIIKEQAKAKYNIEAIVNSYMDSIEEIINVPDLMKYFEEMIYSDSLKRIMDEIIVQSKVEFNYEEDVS

[7] = tested on: T7, SpeI-HF P65A (Sphaerotilus natans); settings: NEB4, relative activity 100%
T7 sequence: T5 sequence with P65A

[8] = tested on: T8, BsaWI-WT (Bacillus stearothermophilus); settings: NEB4, relative activity 100%
T8 sequence: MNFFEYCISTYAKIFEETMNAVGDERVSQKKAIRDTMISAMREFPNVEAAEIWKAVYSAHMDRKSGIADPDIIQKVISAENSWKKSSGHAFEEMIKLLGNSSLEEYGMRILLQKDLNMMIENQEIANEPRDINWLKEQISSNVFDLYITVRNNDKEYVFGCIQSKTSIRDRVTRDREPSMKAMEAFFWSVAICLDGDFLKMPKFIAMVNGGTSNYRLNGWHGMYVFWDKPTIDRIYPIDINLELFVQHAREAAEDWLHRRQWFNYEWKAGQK

[9] = tested on: T9, NsiI-HF F376A (Neisseria sicca); settings: NEB4, relative activity 100%
T9 sequence: T6 sequence with F376A

[10] = tested on: T10, ApoI-WT (Arthrobacter protophormiae); settings: NEB4, relative activity 50%
T10 sequence: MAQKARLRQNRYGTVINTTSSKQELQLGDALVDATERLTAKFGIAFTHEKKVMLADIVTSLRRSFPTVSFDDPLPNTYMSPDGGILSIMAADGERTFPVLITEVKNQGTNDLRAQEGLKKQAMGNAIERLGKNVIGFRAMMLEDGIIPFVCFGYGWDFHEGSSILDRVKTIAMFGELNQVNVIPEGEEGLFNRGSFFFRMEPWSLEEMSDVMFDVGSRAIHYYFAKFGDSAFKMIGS

pXba plasmid
activity (fidelity index) [1]: > 16000
activity (fidelity index) [2]: 64
activity (fidelity index) [3]: 64
activity (fidelity index) [4]: > 256000
activity (fidelity index) [5]: 500
activity (fidelity index) [6]: 32
activity (fidelity index) [7]: > 8000
activity (fidelity index) [8]: 16
activity (fidelity index) [9]: > 8000
activity (fidelity index) [10]: 32
